Experimental data taken from article PMC4027183.
Like-named read-outs stand apart in the source and are kept apart here.

Columns and labels:
Test in all cases: ITC
TIA-1 RRM2,3 [1] = molecular target: T1, TIA-1 RRM2,3 (Homo sapiens, UniProt P31483-2 93-274)
T1 sequence: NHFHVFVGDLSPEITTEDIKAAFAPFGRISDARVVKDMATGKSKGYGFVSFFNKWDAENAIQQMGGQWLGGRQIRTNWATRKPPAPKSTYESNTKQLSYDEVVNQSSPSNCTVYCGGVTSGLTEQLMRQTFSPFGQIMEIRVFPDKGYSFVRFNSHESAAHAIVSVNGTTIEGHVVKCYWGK

TIA-1 RRM2,3 [2] = molecular target: T1, TIA-1 RRM2,3; remark: listed apart in the source
TIA-1 RRM2,3 [3] = molecular target: T1, TIA-1 RRM2,3; remark: listed apart in the source
TIA-1 RRM1,2,3 = molecular target: T2, TIA-1 RRM1,2,3 (Homo sapiens, UniProt P31483-2 1-274)
T2 sequence: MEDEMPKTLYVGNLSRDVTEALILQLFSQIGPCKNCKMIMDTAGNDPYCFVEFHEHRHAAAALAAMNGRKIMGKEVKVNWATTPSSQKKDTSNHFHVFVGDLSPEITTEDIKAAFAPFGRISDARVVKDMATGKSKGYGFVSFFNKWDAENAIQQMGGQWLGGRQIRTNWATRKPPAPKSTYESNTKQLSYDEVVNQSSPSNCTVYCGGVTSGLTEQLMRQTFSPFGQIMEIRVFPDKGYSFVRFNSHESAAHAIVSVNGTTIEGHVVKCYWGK

Q: With UUCUCCUUUC (ssRNA) [fas_10] as the binder, how does the Kd (TIA-1 RRM2,3 [1]) read?
A: 35.6 ± 8.1 nM

Q: How did the Kd (TIA-1 RRM2,3 [2]) turn out when UUUUUUUUU (ssRNA) [U9] was run?
A: 7 ± 0.2 nM

Q: And the Kd (TIA-1 RRM2,3 [3])?
A: 5.6 ± 1.9 nM

Q: With UUUUUUUUUUUUUUU (ssRNA) [U15] as the binder, how does the Kd (TIA-1 RRM1,2,3) read?
A: 16.9 ± 2.7 nM
